Osteoclast differentiation and preferred loading dose data for 1 molecule are collected here from patent US20100098761A1, “Polymer Compositions For Biomedical And Material Applications” (University of Massachusetts Medical School, priority 2007, published 2010).

This test has as its system murine macrophage RAW264.7 cells. Description: Osteoclastic differentiation of RAW264.7 cells (TRAP stain). The format is cell-based. How it is done:
Grafts (5×5×1 mm, FlexBone 25% HA-25% TCP) were pre-absorbed with varying amounts of growth factors and cytokines to provide an exogenous supply for remodeling. […] The preferred loading dose of RANKL (10 ng/FlexBone graft) was determined by the osteoclastic differentiation of macrophage RAW264.7, induced by the RANKL released from the graft as indicated by positive TRAP stains (purple) of multinucleated cells on Day 6. […] Finally, the preferred loading dose of rhVEGF165 in stimulating the proliferation of human vascular endothelial cells in culture was determined to be 5 ng/graft.
Materials. The radical inhibitors in the commercial 2-hydroxyethyl methacrylate (HEMA, Aldrich) and ethylene glycol dimethacrylate (EGDMA, Aldrich) were removed via distillation under reduced pressure and by passing through a 4 Å molecular sieve column prior to use, respectively. […] In a typical procedure, 0-5.0 wt % TCH was dissolved in the mixture of freshly distilled monomer HEMA, 2% cross-linker EGDMA and viscous solvent ethylene glycol under bath-sonication, before 25 wt % HA, 25 wt % TCP, and the aqueous radical initiators ammonium persulfate and sodium metasulfite were added and thoroughly mixed (Table I). […] The compressive behavior of FlexBone in fully hydrated state as a function of TCH content was analyzed using a Q800 Dynamic Mechanical Analyzer (DMA, TA Instruments) equipped with a submersion compression fixture. […] An L-square was used to make sure that the sanded top and bottom surfaces were parallel prior to testing, and the final dimensions of each specimen were measured by a digital caliper. […] All stress-strain curves presented are based on the engineering stress and engineering strain recorded, assuming a fixed cross-section of the material defined at the start of the test. […] The release of TCH from FlexBone vs. pHEMA hydrogel in water as a function of time and the initial TCH incorporation was monitored over 1 week at 357.9 nm. […]

B1: rmRANKL: recombinant receptor activator of nuclear factor κB ligand, E. coli expressed (protein, UniProt O35235 139-316, looked up)
Tumor necrosis factor ligand …: FSGAPAMMEGSWLDVAQRGKPEAQPFAHLTINAASIPSGSHKVTLSSWYHDRGWAKISNMTLSNGKLRVNQDGFYYLYANICFRHHETSGSVPTDYLQLMVYVVKTSIKIPSSHNLMKGGSTKNWSGNSEFHFYSINVGGFFKLRAGEEISIQVSNPSLLDPDQDATYFGAFKVQDID
For the molecule B1, the osteoclast differentiation entry is “formation of TRAP-positive multinucleated osteoclasts” (continued supplement of 10-ng every other day, day six) and “not sufficient in inducing the osteoclast differentiation” (single supplement of 10-ng directly to culture). Also, under “determined by osteoclastic differentiation of RAW264.7, TRAP stains Day 6”, the preferred loading dose stood at 10 ng/FlexBone graft.
